B1: IGHMBP2 (protein, UniProt P38935 2-993, looked up)
DNA-binding protein SMUBP-2: ASAAVESFVTKQLDLLELERDAEVEERRSWQENISLKELQSRGVCLLKLQVSSQRTGLYGRLLVTFEPRRYGSAAALPSNSFTSGDIVGLYDAANEGSQLATGILTRVTQKSVTVAFDESHDFQLSLDRENSYRLLKLANDVTYRRLKKALIALKKYHSGPASSLIEVLFGRSAPSPASEIHPLTFFNTCLDTSQKEAVLFALSQKELAIIHGPPGTGKTTTVVEIILQAVKQGLKVLCCAPSNIAVDNLVERLALCKQRILRLGHPARLLESIQQHSLDAVLARSDSAQIVADIRKDIDQVFVKNKKTQDKREKSNFRNEIKLLRKELKEREEAAMLESLTSANVVLATNTGASADGPLKLLPESYFDVVVIDECAQALEASCWIPLLKARKCILAGDHKQLPPTTVSHKAALAGLSLSLMERLAEEYGARVVRTLTVQYRMHQAIMRWASDTMYLGQLTAHSSVARHLLRDLPGVAATEETGVPLLLVDTAGCGLFELEEEDEQSKGNPGEVRLVSLHIQALVDAGVPARDIAVVSPYNLQVDLLRQSLVHRHPELEIKSVDGFQGREKEAVILSFVRSNRKGEVGFLAEDRRINVAVTRARRHVAVICDSRTVNNHAFLKTLVEYFTQHGEVRTAFEYLDDIVPENYSHENSQGSSHAATKPQGPATSTRTGSQRQEGGQEAAAPARQGRKKPAGKSLASEAPSQPSLNGGSPEGVESQDGVDHFRAMIVEFMASKKMQLEFPPSLNSHDRLRVHQIAEEHGLRHDSSGEGKRRFITVSKRAPRPRAALGPPAGTGGPAPLQPVPPTPAQTEQPPREQRGPDQPDLRTLHLERLQRVRSAQGQPASKEQQASGQQKLPEKKKKKAKGHPATDLPTEEDFEALVSAAVKADNTCGFAKCTAGVTTLGQFCQLCSRRYCLSHHLPEIHGCGERARAHARQRISREGVLYAGSGTKNGSLDPAKRAQLQRRLDKKLSELSNQRTSRRKERGT
B2: LMNA (protein, UniProt P02545 1-661, looked up)
Prelamin-A/C: METPSQRRATRSGAQASSTPLSPTRITRLQEKEDLQELNDRLAVYIDRVRSLETENAGLRLRITESEEVVSREVSGIKAAYEAELGDARKTLDSVAKERARLQLELSKVREEFKELKARNTKKEGDLIAAQARLKDLEALLNSKEAALSTALSEKRTLEGELHDLRGQVAKLEAALGEAKKQLQDEMLRRVDAENRLQTMKEELDFQKNIYSEELRETKRRHETRLVEIDNGKQREFESRLADALQELRAQHEDQVEQYKKELEKTYSAKLDNARQSAERNSNLVGAAHEELQQSRIRIDSLSAQLSQLQKQLAAKEAKLRDLEDSLARERDTSRRLLAEKEREMAEMRARMQQQLDEYQELLDIKLALDMEIHAYRKLLEGEEERLRLSPSPTSQRSRGRASSHSSQTQGGGSVTKKRKLESTESRSSFSQHARTSGRVAVEEVDEEGKFVRLRNKSNEDQSMGNWQIKRQNGDDPLLTYRFPPKFTLKAGQVVTIWAAGAGATHSPPTDLVWKAQNTWGCGNSLRTALINSTGEEVAMRKLVRSVTVVEDDEDEDGDDLLHHHHGSHCSSSGDPAEYNLRSRTVLCGTCGQPADKASASGSGAQVGGPISSGSSASSVTVTRSYRSVGGSGGGSFGDNLVTRSYLLGNSSPRTQSPQNC
B3: PHGDH (protein, UniProt O43175 2-533, looked up)
D-3-phosphoglycerate …: AFANLRKVLISDSLDPCCRKILQDGGLQVVEKQNLSKEELIAELQDCEGLIVRSATKVTADVINAAEKLQVVGRAGTGVDNVDLEAATRKGILVMNTPNGNSLSAAELTCGMIMCLARQIPQATASMKDGKWERKKFMGTELNGKTLGILGLGRIGREVATRMQSFGMKTIGYDPIISPEVSASFGVQQLPLEEIWPLCDFITVHTPLLPSTTGLLNDNTFAQCKKGVRVVNCARGGIVDEGALLRALQSGQCAGAALDVFTEEPPRDRALVDHENVISCPHLGASTKEAQSRCGEEIAVQFVDMVKGKSLTGVVNAQALTSAFSPHTKPWIGLAEALGTLMRAWAGSPKGTIQVITQGTSLKNAGNCLSPAVIVGLLKEASKQADVNLVNAKLLVKEAGLNVTTSHSPAAPGEQGFGECLLAVALAGAPYQAVGLVQGTTPVLQGLNGAVFRPEVPLRRDLPLLLFRTQTSDPAMLPTMIGLLAEAGVRLLSYQTSLVSDGETWHVMGISSLLPSLEAWKQHVTEAFQFHF
B4: TCF25 (protein, UniProt Q9BQ70 1-676, looked up)
Ribosome quality control …: MSRRALRRLRGEQRGQEPLGPGALHFDLRDDDDAEEEGPKRELGVRRPGGAGKEGVRVNNRFELINIDDLEDDPVVNGERSGCALTDAVAPGNKGRGQRGNTESKTDGDDTETVPSEQSHASGKLRKKKKKQKNKKSSTGEASENGLEDIDRILERIEDSTGLNRPGPAPLSSRKHVLYVEHRHLNPDTELKRYFGARAILGEQRPRQRQRVYPKCTWLTTPKSTWPRYSKPGLSMRLLESKKGLSFFAFEHSEEYQQAQHKFLVAVESMEPNNIVVLLQTSPYHVDSLLQLSDACRFQEDQEMARDLVERALYSMECAFHPLFSLTSGACRLDYRRPENRSFYLALYKQMSFLEKRGCPRTALEYCKLILSLEPDEDPLCMLLLIDHLALRARNYEYLIRLFQEWEAHRNLSQLPNFAFSVPLAYFLLSQQTDLPECEQSSARQKASLLIQQALTMFPGVLLPLLESCSVRPDASVSSHRFFGPNAEISQPPALSQLVNLYLGRSHFLWKEPATMSWLEENVHEVLQAVDAGDPAVEACENRRKVLYQRAPRNIHRHVILSEIKEAVAALPPDVTTQSVMGFDPLPPSDTIYSYVRPERLSPISHGNTIALFFRSLLPNYTMEGERPEEGVAGGLNRNQGLNRLMLAVRDMMANFHLNDLEAPHEDDAEGEGEWD
B5: SFPQ (protein, UniProt P23246 1-707, looked up)
Splicing factor, proline- and …: MSRDRFRSRGGGGGGFHRRGGGGGRGGLHDFRSPPPGMGLNQNRGPMGPGPGQSGPKPPIPPPPPHQQQQQPPPQQPPPQQPPPHQPPPHPQPHQQQQPPPPPQDSSKPVVAQGPGPAPGVGSAPPASSSAPPATPPTSGAPPGSGPGPTPTPPPAVTSAPPGAPPPTPPSSGVPTTPPQAGGPPPPPAAVPGPGPGPKQGPGPGGPKGGKMPGGPKPGGGPGLSTPGGHPKPPHRGGGEPRGGRQHHPPYHQQHHQGPPPGGPGGRSEEKISDSEGFKANLSLLRRPGEKTYTQRCRLFVGNLPADITEDEFKRLFAKYGEPGEVFINKGKGFGFIKLESRALAEIAKAELDDTPMRGRQLRVRFATHAAALSVRNLSPYVSNELLEEAFSQFGPIERAVVIVDDRGRSTGKGIVEFASKPAARKAFERCSEGVFLLTTTPRPVIVEPLEQLDDEDGLPEKLAQKNPMYQKERETPPRFAQHGTFEYEYSQRWKSLDEMEKQQREQVEKNMKDAKDKLESEMEDAYHEHQANLLRQDLMRRQEELRRMEELHNQEMQKRKEMQLRQEEERRRREEEMMIRQREMEEQMRRQREESYSRMGYMDPRERDMRMGGGGAMNMGDPYGSGGQKFPPLGGGGGIGYEANPGVPPATMSGSMMGSDMRTERFGQGGAGPVGGQGPRGMGPGTPAGYGRGREEYEGPNKKPRF

Tests used:
[1] = tested on: GFP-14-3-3β and its binding proteins; assay: GFP-14-3-3β co-IP with LC-MS/MS label-free quantification, untreated versus PP1c-treated; design: species or system human; conditions: label-free quantification, 3 replicates each
[2] = tested on: GFP-14-3-3β; assay: GFP-14-3-3β co-IP with LC-MS/MS, untreated GFP-14-3-3β versus GFP control (14-3-3 interactome); type: binding, human; conditions: label-free quantification, 3 replicates each
[3] = GFP-14-3-3β co-IP LC-MS/MS, PP1 vs untreated, student's t-test
[4] = GFP-14-3-3β co-IP LC-MS/MS, untreated vs GFP, student's t-test

| Molecule | Difference (log2), PP1 vs untreated [1, 3] | Difference (log2), untreated vs GFP [2, 4] | Difference (log2), PP1 vs untreated ([1]; log2 difference, pairwise comparison PP1 vs untreated) | Difference (log2), untreated vs GFP ([2]; log2 difference, pairwise comparison untreated vs GFP) |
| --- | --- | --- | --- | --- |
| B1 | -0.3964 log2 | 0.7737 log2 |  |  |
| B2 | -0.4623 log2 | -0.3549 log2 |  |  |
| B3 | -0.3751 log2 | -0.2834 log2 |  |  |
| B4 |  |  | 1.673 | -0.2721 |
| B5 | -0.3668 log2 | 0.3721 log2 |  |  |

Reference: PMC7367873, “Dissecting the sequence determinants for dephosphorylation by the catalytic subunits of phosphatases PP1 and PP2A” (Nature Communications, 2020)
